Patent US20230295227A1, “COMPOUNDS FOR USE IN DIAGNOSIS AND/OR MONITORING OF FIBROSIS” (ANTAROS TRACER AB, priority 2020, published 2023)
Like-named read-outs stand apart in the source and are kept apart here.

Legend:
[1] = Stability testing of peptides at pH 7.4 (PBS), HPLC Method A; type: physicochemical
Procedure: (§1) Analytical high performance liquid chromatography (HPLC) was performed on a Dionex UltiMate 3000 HPLC system with a Bruker amazon SL ion trap mass spectrometer and detection by UV (diode array detector, 214, 254, and 280 nm) and electrospray ionization (ESI) MS using a Penomenex Kinetex C18 column (50×3.0 mm, 2.6 μm particle size, 100 Åpore size) and a Penomenex Kinetex Biphenyl column (50×4.6 mm, 2.6 μm particle size, 100 Åpore size). A gradient of H2O/CH3CN/0.05% HCOOH was used at a flow rate of 1.5 mL/min.
Method A: Detection at 214 nm column: Penomenex Kinetex C18 (50×3.0 mm, 2.6 μm particle size, 100 Åpore size) solvent: H2O+0.05% HCOOH: CH3CN+0.05% HCOOH (flow 1.5 ml/min) […]
(§2) For stability testing, 500 μmol pure compound was dissolved in 1 mL PBS buffer (pH 7.4), or 1 mL sodium acetate buffer (pH 4.5, 100 mM). For the peptides stored in PBS, the solutions were stored for 14 days at 4° C. and 23° C. At 0 h, 1 day, 7 days and 14 days, the solutions were analyzed by HPLC (analytical HPLC Method A and Method B).
(§3) The “% Purity” at each time point is defined by the % Relative purity at time point “n” (n=1 day, 7 days, 14 days in pH 7.4 PBS and 1 day at pH 4.5 NaAc) in relation to the % Relative purity at t0 following the equation:
(§4) % Purity at tn=[(% Relative purity tn)×100)]/% Relative purity t0 […]
Samples were incubated up to 14 days at 23° C. and 4° C. and were analyzed using HPLC Method A.

[2] = Stability testing of peptides at pH 7.4 (PBS), HPLC Method B; type: physicochemical
Procedure: as §1
Method B: Detection at 214 nm column: Penomenex Kinetex Biphenyl column (50×4.6 mm, 2.6 μm particle size, 100 Åpore size) solvent: H2O+0.05% HCOOH: CH3CN+0.05% HCOOH (flow 1.5 ml/min) […]
as §2, §3, §4
Samples were incubated up to 14 days at 23° C. and 4° C. and were analyzed using HPLC Method B.

[3] = Stability testing of peptides at pH 4.5 (sodium acetate buffer), HPLC Method B; type: physicochemical
Procedure: as §1
Method B: Detection at 214 nm
For the peptides stored in sodium acetate buffer (pH 4.5, 100 mM) the solutions were analyzed by HPLC (analytical HPLC Method B) after 0 h, and 1 day incubation at 4° C. and 23° C.
as §3
% Purity at tn=[(% Relative purity tn)×100)]/% Relative purity t0
Samples were incubated for 1 day at 23° C. and 4° C. and were analyzed using HPLC Method B.

in vivo = assay: in vivo; set-up: species or system Sprague Dawley rats; conditions: rat
Procedure: Sprague Dawley rats (obtained from Taconic, n=22, male, healthy, weight 287±25 g) were used for ex vivo organ distribution assessment of biodistribution and dosimetry.
Five MBq of [^68Ga]Ga-1 (n=10) (corresponding to 5-10 μg) in phosphate-buffered saline (PBS, pH 7.4) was injected intravenously as a bolus to conscious rats. The animals were euthanized by a CO2—O2 mixture 10, 20, 40, 60 and 120 minutes post-injection. The radioactivity of the excised organs was measured in a gamma counter. Samples from blood, heart, lung, liver, spleen, adrenal glands, kidneys, intestines, with or without contents, muscle, testis, bone, brain, pancreas, urine bladder and bone marrow were collected. The remaining carcass was also measured in order to monitor the radioactivity elimination and recovery. The radioactivity readings were decay-corrected to the time of the injection, and the results were expressed as standardized uptake values (SUV).
The biodistribution of [^68Ga]Ga-1 ([^68Ga]Ga—NH—(CH2CH2O)2—CH2—C(O)-LRELHLNNN—OH) was carried out as described above.

[4] = mouse, in vivo; cited from earlier work
[5] = rat, in vivo; cited from earlier work
[6] = male, Sprague Dawley, iv, 5 MBq, total radioactivity

With `CC(C)C[C@H](NC(=O)COCCOCCNC(=O)CN1CCN(CC(=O)O)CCN(CC(=O)O)CCN(CC(=O)O)CC1)C(=O)N[C@@H](CCCNC(=N)N)C(=O)N[C@@H](CCC(=O)O)C(=O)N[C@@H](CC(C)C)C(=O)N[C@@H](Cc1c[nH]cn1)C(=O)N[C@@H](CC(C)C)C(=O)N[C@@H](CC(N)=O)C(=O)N[C@@H](CC(N)=O)C(=O)N[C@@H](CC(N)=O)C(=O)O` [Compound 1, DOTA-NH—(CH2CH2O)2—CH2—C(O)-L-R-E-L-H-L-N—N—N—OH] the “% Purity after 1 day” value ([1]; 4° C.) was over 99%, the “% Purity after 7 days” value ([1]; 4° C.) was over 99% and the “% Purity after 14 days” value ([1]; 4° C.) was over 99%. For the same compound, the “% Purity after 1 day” value ([1]; 23° C.) was over 99%, the “% Purity after 7 days” value ([1]; 23° C.) was over 98% and the “% Purity after 14 days” value ([1]; 23° C.) was over 97%. For the same compound, the “% Purity after 1 day” value ([2]; 4° C.) was 100%, the “% Purity after 7 days” value ([2]; 4° C.) was over 98% and the “% Purity after 14 days” value ([2]; 4° C.) was over 96%. For the same compound, the “% Purity after 1 day” value ([2]; 23° C.) was over 99%, the “% Purity after 7 days” value ([2]; 23° C.) was over 98% and the “% Purity after 14 days” value ([2]; 23° C.) was over 97%. The “% Purity after 1 day” value ([3]; 4° C.) was over 95% and the “% Purity after 1 day” value ([3]; 23° C.) was over 96%.

For `CC(C)C[C@H](NC(=O)COCCOCCNC(=O)CN1CCN(CC(=O)O)CCN(CC(=O)O)CCN(CC(=O)O)CC1)C(=O)N[C@@H](CCCNC(=N)N)C(=O)N[C@@H](CCC(=O)O)C(=O)N[C@@H](CC(C)C)C(=O)N[C@@H](Cc1c[nH]cn1)C(=O)N[C@@H](CC(C)C)C(=O)N[C@@H](CC(N)=O)C(=O)N[C@@H](CC(N)=O)C(=O)N[C@@H](CC(N)=O)C(=O)O` [[^68Ga]Ga-1, [^68Ga]Ga-DOTA-NH—(CH2CH2O)2—CH2—C(O)-LRELHLNNN—OH, metal not drawn], the SUV at 1 h (in vivo; [6]) was under 1 SUV, the SUV at 2 h (in vivo; [6]) was 1 SUV and the “SUV Kidney” value (in vivo) was 1.7. The “SUV Liver” value (in vivo) was 0.7.

In the case of DOTA-L-R-E-L-H-L-N—N—N—OH [Compound 12], the “% Purity after 1 day” value ([1]; 4° C.) is reported as over 99%, the “% Purity after 7 days” value ([1]; 4° C.) is reported as over 99% and the “% Purity after 1 day” value ([1]; 23° C.) is reported as over 99%. For the same compound, the “% Purity after 7 days” value ([1]; 23° C.) was over 96%, the “% Purity after 1 day” value ([2]; 4° C.) was over 99% and the “% Purity after 7 days” value ([2]; 4° C.) was over 99%. For the same compound, the “% Purity after 1 day” value ([2]; 23° C.) was over 99%, the “% Purity after 7 days” value ([2]; 23° C.) was over 95% and the “% Purity after 1 day” value ([3]; 4° C.) was over 98%. For the same compound, the “% Purity after 1 day” value ([3]; 23° C.) was over 98%.

For “DOTA-NH—(CH2CH2O)2—CH2—C(O)-L-R-E-L-H—V-N—N—N—OH [Compound 6]”, the “% Purity after 1 day” value ([1]; 4° C.) was over 99%, the “% Purity after 7 days” value ([1]; 4° C.) was over 99% and the “% Purity after 1 day” value ([1]; 23° C.) was 100%. The “% Purity after 7 days” value ([1]; 23° C.) was over 99%, the “% Purity after 1 day” value ([2]; 4° C.) was over 99% and the “% Purity after 7 days” value ([2]; 4° C.) was over 99%. The “% Purity after 1 day” value ([2]; 23° C.) was over 99%, the “% Purity after 7 days” value ([2]; 23° C.) was over 99% and the “% Purity after 1 day” value ([3]; 4° C.) was over 99%. For the same compound, the “% Purity after 1 day” value ([3]; 23° C.) was over 99%.

For “DOTA-NH—(CH2CH2O)3—CH2—C(O)-L-R-E-L-H-L-N—N—N—OH [Compound 11]”, the “% Purity after 1 day” value ([1]; 4° C.) was over 99%, the “% Purity after 7 days” value ([1]; 4° C.) was over 97% and the “% Purity after 1 day” value ([1]; 23° C.) was over 99%. For the same compound, the “% Purity after 7 days” value ([1]; 23° C.) was over 96%, the “% Purity after 1 day” value ([2]; 4° C.) was over 99% and the “% Purity after 7 days” value ([2]; 4° C.) was over 99%. For the same compound, the “% Purity after 1 day” value ([2]; 23° C.) was over 99%, the “% Purity after 7 days” value ([2]; 23° C.) was over 99% and the “% Purity after 1 day” value ([3]; 4° C.) was over 99%. For the same compound, the “% Purity after 1 day” value ([3]; 23° C.) was over 98%.

With “H2N-L-R-E-L-H-L-N—N—N—K(DOTA-NH—(CH2CH2O)2—CH2—C(O))—NH2 [Compound 13]” the “% Purity after 1 day” value ([1]; 4° C.) was 100%, the “% Purity after 7 days” value ([1]; 4° C.) was 100% and the “% Purity after 1 day” value ([1]; 23° C.) was 100%. The “% Purity after 7 days” value ([1]; 23° C.) was 100%, the “% Purity after 1 day” value ([2]; 4° C.) was over 99% and the “% Purity after 7 days” value ([2]; 4° C.) was over 99%. For the same compound, the “% Purity after 1 day” value ([2]; 23° C.) was over 99%, the “% Purity after 7 days” value ([2]; 23° C.) was over 99% and the “% Purity after 1 day” value ([3]; 4° C.) was over 99%. For the same compound, the “% Purity after 1 day” value ([3]; 23° C.) was over 99%.

For “[^68Ga]Ga-DOTA-CBP8 [Comparative Tracer 1]”, the “SUV Kidney” value [4] is listed as 10 and the “SUV Liver” value [4] is listed as 0.4.

For “[^68Ga]Ga-NODAGA-Collagelin [Comparative Tracer 3]”, the “SUV Kidney” value [5] is listed as 11.1 and the “SUV Liver” value [5] is listed as 0.8.

In the case of “[^68Ga]Ga-NOTA-Collagelin [Comparative Tracer 2]”, the “SUV Kidney” value [5] is listed as 6.2, the “SUV Liver” value [5] is listed as 0.5 and the “SUV Kidney” value [4] is listed as 10.
